Test results as given in patent US20220356210A1, “A SERIES OF INJECTABLE HYDROGELS SELF-ASSEMBLED FROM SHORT PEPTIDES FOR VARIOUS BIOMEDICAL APPLICATIONS” (Agency for Science, Technology and Research, priority 2019, published 2022).
Non-standard residues stand in square brackets, D forms with d. No end group written: not given here.

Assays:
[1] = Gelation by vial tilting method; type: physicochemical; settings: for Concentration to form the gel: in the presence of a salt; for Minimum concentration to form the gel: without the presence of a salt
Protocol: The peptide powder was dissolved in water or other aqueous solutions at the required concentrations. Alternatively, the required salt may be added after the peptide aqueous solution is prepared. The hydrogel was formed by mixing the peptide aqueous solution and salt (if required). For example, the solution was vortexed and then incubated to form hydrogel. The hydrogel formed may be stored as formed, or may be dried, for example by freeze drying. Alternatively, the hydrogel may be formed as required. The gelation time was determined by the vial tilting method. […] Rheology experiments were performed at room temperature using a control-strain rheometer (ARES G2, TA instruments). The rheometer is equipped with two sensitive force transducers for torque ranging from 0.05 μN·m to 200 mN·m. The peptide powder was dissolved in water at concentrations ranging from 1.0 to 2.0 (w/v) %. The solution was vortexed and then incubated to form hydrogel. The gel was placed onto parallel-plate geometry (8 mm in diameter). The dynamic storage modulus (G′) and loss modulus (G″) were examined as a function of frequency from 1 to 100 rad/s. The measurements were carried out at a strain amplitude (y) to ensure the linearity of viscoelasticity. Flow sweep (viscosity changes as a function of shear rate) was also performed to study shear thinning properties of hydrogels.

[2] = Rheology, G′ and G″ at frequency of 1 Hz; type: physicochemical
Protocol: The gelation time was determined by the vial tilting method. […] Rheology experiments were performed at room temperature using a control-strain rheometer (ARES G2, TA instruments). The rheometer is equipped with two sensitive force transducers for torque ranging from 0.05 μN·m to 200 mN·m. […] The solution was vortexed and then incubated to form hydrogel. The gel was placed onto parallel-plate geometry (8 mm in diameter). The dynamic storage modulus (G′) and loss modulus (G″) were examined as a function of frequency from 1 to 100 rad/s. The measurements were carried out at a strain amplitude (y) to ensure the linearity of viscoelasticity. Flow sweep (viscosity changes as a function of shear rate) was also performed to study shear thinning properties of hydrogels.

[3] = CD spectra of peptide amphiphiles; type: physicochemical; settings: 1.0 mg/mL, with addition of salt (PBS pH 7.4), room temperature
Protocol: CD measurements were performed with a Jasco Model J-810 spectropolarimeter (Jasco, Great Dunmow, Essex, UK) using a quartz cuvette with 1 mm pathlength (Hellma, Germany). Spectra were recorded (average of 3 scans) from 240 to 190 nm at a scan speed of 50 nm/min. The ellipticity was derived from the formula: [θ]λ=(M/(N−1)×θλ)/(d×c), where θλ represents observed ellipticity (degrees) at wavelength λ, d represents pathlength (cm), c represents the concentration (g/mL), and [θ]λ represents residue ellipticity (deg cm^2 dmol^−1). Thermal scans were measured with Jasco Model J-810 spectropolarimeter equipped with a peltier temperature controller. The solution was allowed to reach equilibrium for 10 min at room temperature prior to testing.

[4] = Stability of peptide hydrogels in PBS
hMSCs = assay: Live/Dead staining of hMSCs on or in peptide hydrogel (confocal); type: cell-based, human
Protocol: hMSCs were cultured in MSCGM medium (Lonza, U.S.A.) and incubated at 37° C., 5% CO2. The medium was changed every three days. The cells were harvested with PBS containing 0.025 (w/v) % trypsin and 0.01% EDTA, centrifuged and sub-cultured to passage 4 in MSCGM for 2D culture on the surface of hydrogels or 3D hydrogel encapsulation as described below.
The morphology and viability of hMSCs on the surface of hydrogels and inside 3D peptide hydrogel environment was observed by an inverted confocal laser scanning microscope (CLSM) (CLSM, Carl Zeiss, Germany). Live/Dead cell staining assay (Invitrogen) was used. Briefly, cells cultured on the surfaces of hydrogels in chambered cover glass (NUNC, Denmark) were washed with PBS and incubated in 0.5 mL of PBS containing dyes for 10 min, then visualized by CLSM at excitation wavelengths of 488 nm and 532 nm. All the observations were conducted under the same conditions. For the cells grown in 3D hydrogels, the constructs were cut, followed by the addition of staining agent. The gels were transferred to cover glass and then visualized by CLSM using the same method as described for the cells on the hydrogel surface.

[5] = antimicrobial peptide alone; cited from earlier work
MRSA = settings: clinically isolated MRSA; cited from earlier work
A. baumannii = settings: clinically isolated multidrug-resistant A. baumannii; cited from earlier work
VRE = settings: clinically isolated VRE; cited from earlier work
P. aeruginosa = settings: clinically isolated multidrug-resistant P. aeruginosa; cited from earlier work
C. neoformans = settings: clinically isolated yeast C. neoformans; cited from earlier work
rat red blood cells = settings: cited from earlier work
[6] = In vitro cytotoxicity, MTT assay; type: cell-based, human; settings: human
Protocol: 1000 μL of HDFs or keratinocytes (10^5 cells per mL) were seeded onto the 12-well Transwell plates (Corning). IIK12 (1%) with various contents of antimicrobial peptides were dissolved in water and incubated at 37° C. overnight and 100 μL of gels were then transferred to the inserts of the Transwell plate. 1 mL of fresh medium was added into the inserts. The plates were incubated for 24 h before proceeding to MTT assay. It is noted that cells without any treatment and Mupirocin (GSK) were used as controls. The data were expressed as mean and standard deviation of three replicates and the tests were repeated 3 times.

[7] = keratitis mouse model; cited from earlier work
[8] = 1.5 wt %, gelation temp. 37 °C, DMEM
[9] = 1.5 wt %, gelation temp. 37 °C, H2O
[10] = 1.5 wt %, gelation temp. R.T., H2O
[11] = 2.0 wt %, gelation temp. 37 °C, H2O

Substance: IEIEIRIK (IEIEIRIK-NH2) [IIK8]
- Concentration to form the gel [1]: 0.6 % w/v
- Gel appearance, gelation in DI water at R.T. ([1]; peptide conc. 1.0 %): clear
- Gelation in DI water at 37° C. (via tilting) ([1]; peptide conc. 1.0 %): overnight
- Gelation in DI water at R.T. (via tilting), time ([1]; peptide conc. 1.0 %): 1 day, days
- Gelation in DI water at 37° C. (via tilting), time ([1]; peptide conc. 1.5 %): ≤ 15 min
- Gelation in DI water at R.T. (via tilting), time ([1]; peptide conc. 1.5 %): 30 min
- Gelation in DI water at 37° C. (via tilting), time ([1]; peptide conc. 1.5 %, listed as IEIEIRIK): 20 min
- Gelation in DI water at 37° C. (via tilting), time ([1]; peptide conc. 2.0 %): 20 min
- Gelation in DI water at R.T. (via tilting), time ([1]; peptide conc. 2.0 %): 30 min
- Minimum concentration to form the gel [1]: 1.0 % w/v
- G′ (storage modulus) [2, 8]: 1206 Pa
- G″ (loss modulus) [2, 8]: 172 Pa
- G′ (storage modulus) [2, 9]: 707 Pa
- G″ (loss modulus) [2, 9]: 32 Pa
- G′ (storage modulus) [2, 10]: 125 Pa
- G″ (loss modulus) [2, 10]: 22 Pa
- G′ (storage modulus) [2, 11]: 1139 Pa
- G″ (loss modulus) [2, 11]: 90 Pa
- Molecular ellipticity (θM) at the minimum point [3]: −28.9 deg.cm^2dmol^−1
- Stability in PBS ([4]; peptide conc. 1.0 %): Yes
- Stability in PBS ([4]; peptide conc. 1.5 %): Yes
- Stability in PBS ([4]; peptide conc. 2.0 %): Yes

Substance: IELEIRLK (IELEIRLK-NH2) [ILK8]
- Concentration to form the gel [1]: 0.6 % w/v
- Gelation in DI water at 37° C. (via tilting) ([1]; peptide conc. 1.0 %): overnight
- Gelation in DI water at R.T. (via tilting), time ([1]; peptide conc. 1.0 %): 1 day days
- Gelation in DI water at 37° C. (via tilting), time ([1]; peptide conc. 1.5 %): 15 min
- Gelation in DI water at R.T. (via tilting), time ([1]; peptide conc. 1.5 %): 30 min
- Gelation in DI water at 37° C. (via tilting), time ([1]; peptide conc. 2.0 %): 10 min
- Gelation in DI water at R.T. (via tilting), time ([1]; peptide conc. 2.0 %): 20 min
- Minimum concentration to form the gel [1]: 1.0 % w/v
- G′ (storage modulus) [2, 10]: 332 Pa
- G″ (loss modulus) [2, 10]: 40 Pa
- Molecular ellipticity (θM) at the minimum point [3]: −21.4 deg.cm^2dmol^−1
- Stability in PBS ([4]; peptide conc. 1.0 %): Yes
- Stability in PBS ([4]; peptide conc. 1.5 %): Yes
- Stability in PBS ([4]; peptide conc. 2.0 %): Yes

Substance: IEVEIEVKIRVK (IEVEIEVKIRVK-NH2) [IEV12]
- Gelation in DI water at R.T. (via tilting) ([1]; peptide conc. 0.5 %): No
- Gelation in DI water at 37° C. (via tilting) ([1]; peptide conc. 1.0, 2.0 %): Gel

Substance: IEVEIRVK-NH2 [IVK8, IEVEIRVK]
- Viability of encapsulated cells (hMSCs; 1 day after encapsulation): the majority of encapsulated hMSCs remained viable
- Viability of cells on the surface of peptide hydrogel (hMSCs; after 24 h attachment): the majority of the cells remained viable

Substance: IK8D: D-enantiomer of antimicrobial peptide IRIKIRIK ([dI][dR][dI][dK][dI][dR][dI][dK])
- Peptide concentration at which a hydrogel forms [5]: 8 w/v %
- MIC (MRSA): 3.9 mg/L
- MIC (A. baumannii): 31.3 mg/L
- MIC (VRE): 3.9 mg/L
- MIC (P. aeruginosa): 15.6 mg/L
- MIC (C. neoformans): 7.8 mg/L
- HC10 value (the lowest concentration that induced 10% or more hemolysis) (rat red blood cells): 1750 µg/mL

Substance: IRIKIRIK-NH2 [IK8L, IRIKIRIK]
- viability at 24 h, 1000 µg/mL ([6]; human dermal fibroblasts (HDFs) in 12-well Transwell plates): 22%
- viability at 24 h, 125 µg/mL ([6]; human primary keratinocytes in 12-well Transwell plates): > 70%
- Toxicity to the eyes [7]: without causing significant toxicity to the eyes
- HC10 value (the lowest concentration that induced 10% or more hemolysis) (rat red blood cells): 2000 µg/mL

Substance: IRVE (IRVE-NH2)
- Gelation in DI water at R.T. (via tilting) ([1]; peptide conc. 10 %): No

Substance: IRVEIEVK (IRVEIEVK-NH2) [IRK8]
- Gel formation ([1]; concentrations up to 2%): no gel formation
- Gelation in DI water at R.T. (via tilting) ([1]; peptide conc. 1.0 %): No
- Gelation in DI water at R.T. (via tilting) ([1]; peptide conc. 2.0 %): No

Substance: IRVEIK (IRVEIK-NH2)
- Gelation in DI water at R.T. (via tilting) ([1]; peptide conc. 1.0 %): No
- Gelation in DI water at R.T. (via tilting) ([1]; peptide conc. 2.0 %): No

Substance: IRVEIKVE (IRVEIKVE-NH2) [IRE8]
- Gelation in DI water at R.T. (via tilting) ([1]; peptide conc. 1.0 %): No
- Gel appearance, gelation in DI water at R.T. ([1]; peptide conc. 2.0 %): clear
- Gelation in DI water at 37° C. (via tilting), time ([1]; peptide conc. 2.0 %): 1400 min
- Gelation in DI water at R.T. (via tilting), time ([1]; peptide conc. 2.0 %): 4300 min
- Gelation in DI water at R.T. (via tilting), time ([1]; peptide conc. 2.0 %, listed as IRVEIKVE): 3 days,

Substance: IRVEIRVEIRVE (IRVEIRVEIRVE-NH2) [IRV12]
- Gelation in DI water at R.T. (via tilting) ([1]; peptide conc. 0.5 %): No
- Gel appearance, gelation in DI water at 37° C. ([1]; peptide conc. 1.0, 2.0 %): cloudy
- Gelation in DI water at 37° C. (via tilting) ([1]; peptide conc. 1.0, 2.0 %): Gel,

Substance: IRVKIEVEIRVK (IRVKIEVEIRVK-NH2) [IVK12]
- Lowest concentration at which hydrogels self-assembled ([1]; aqueous solution): 0.6 (w/v) %
- Gelation in DI water at 37° C. (via tilting) ([1]; peptide conc. 0.6, 1.0 %): Gel
